From patent US5639728A, “Antineoplastic peptide” (priority 1993, dated 1997)

Columns and labels:
[1] = Toxicity deaths (LD50) in Balb/c mice; format: in vivo, mouse; conditions: i.v. twice per week, five times; female Balb/c mice
Method: (§1) The following experiments were performed in order to calculate a therapeutic index (ratio of toxicity and effectiveness). 2×10^5 Meth A mouse sarcoma cells were transplanted into the dorsal subcutis of 6-week-old female Balb/c mice in single groups comprising from 5 to 10 animals. Seven days after the tumor transplant, the tested substance was dissolved in physiological saline (9.9×10^7 units/ml, 5×10^7 units/mg), and this solution was administered intravenously to the mice twice per week; a total five times. In a control group, physiological saline alone was administered intravenously.
(§2) Based on the tumor growth restriction rates obtained at various concentrations, concentrations restricting tumor growth by 50% (50% effective dose; ED50 mg/kg) were calculated. In each administration group, when toxicity deaths were observed, a 50% lethal quantity (50% lethal dose; LD50 mg/kg) was calculated. The therapeutic index was taken as the ratio of the 50% lethal quantity (LD50) to the 50% tumor growth restriction quantity (ED50)
(§3) Control Δ10LT^4) was the TNF disclosed in JJP, A, S60-185799.

[2] = test system: Meth A mouse sarcoma cells; test: Antitumor effect on Meth A mouse sarcoma transplanted into Balb/c mice; format: in vivo; conditions: for Inhibition rate (tumor growth restriction rate): day 21
Method: as §1
When 21 days following the transplant had passed, surviving animals were sacrificed, and tumors were excised. The excised tumors were weighed, and a mean tumor weight was calculated in each group. The mean tumor weight in each administration group was compared with the mean tumor weight in the control group, and tumor growth restriction rates were determined.
as §2, §3

[3] = Effect on systolic blood pressure in SD rats; format: in vivo, rat; conditions: 1 mg/kg i.v., t-test *P < 0.05 for PΔ10LT, FΔ10LT, Δ10LT, LT, TNFα, -- for FPΔ10LT, MLT
Text: Using 11-week-old Crj:CD(SD) rats 350 to 400 g in weight (Nihon Charles River), effects of each test substance on blood pressure were investigated as follows. The aforementioned rats were given ether anesthesia, hair in the right femoral region was cue with clippers, and the skin was cut open using a small scissors. Xylocaine jelly (local anesthetic) was then applied to the cut skin, and each blood vessel was carefully peeled using a tweezers. After the peeling, an SP10 cannulation tube equipped with a three-way cock (Natsume) was attached to arteries and veins, and 200 unit/ml heparin solution was injected therefrom.
After insertion, the skin was sutured using an automatic stitcher, and the rats were secured to a stationary platform (Natsume, Boormann cage). After securing, air in the three-way cock of the arterial cannula was completely removed, and a polygraph (Nihon Denki Sanei, Model 363 System) pressure transducer was connected. After connection, the polygraph was set up, blood pressure measurement was begun, and when blood pressure and heart rate had stabilized, each tested substance used in the foregoing antitumor effect testing was administered by intravenous injection, and 24 hour systolic blood pressure was measured after administration. […]

[4] = previously known; cited from earlier work

| Molecule | LD50 [1] [mg/kg] | Inhibition rate (tumor growth restriction rate) ([2]; 0.23 mg/kg i.v. twice per week, five times) [%] | Inhibition rate (tumor growth restriction rate) ([2]; 0.94 mg/kg i.v. twice per week, five times) [%] | ED50 (50% tumor growth restriction) ([2]; i.v. twice per week, five times, Meth A, female Balb/c mice) [mg/kg] | Treatment coefficient (LD50/ED50) ([2]; therapeutic index, LD50/ED50) | Decrease of blood pressure (% of the control value) 24 hours after administration [3] [%] | hypotensive effect, in words [4] |
| --- | --- | --- | --- | --- | --- | --- | --- |
| TNFα | 1.08 | 43.3 | 86.5 | 0.31 | 3.5 | -9.6 | hypotension is a side effect |
| LT: native-form human lymphotoxin (LT) (protein, UniProt P01374 35-205, looked up) Lymphotoxin-alpha: LPGVGLTPSAAQTARQHPKMHLAHSTLKPAAHLIGDPSKQNSLLWRANTDRAFLQDGFSLSNNSLLVPTSGIYFVYSQVVFSGKAYSPKATSSPLYLAHEVQLFSSQYPFHVPLLSSQKMVYPGLQEPWLHSMYHGAAFQLTQGDQLSTHTDGIPHLVLSPSTVFFGAFAL | – | – | – | – | – | -10.1 | also has a hypotensive effect |
